Measured values as given in paper PMC5405867 (Nature structural & molecular biology, 2017).
Substitutions are numbered along the chain they refer to. In names and notes the source's numbering stands.

Legend:
[1] = target: T1, murine USP18^IBB-2-USP7, His6-tagged (mouse, UniProt Q9WTV6 1-368, residues 256-263 (S-A-R-N-S-R-T-E) replaced by the corresponding residues …); experiment: cell-based or functional assay
T1 sequence (looked up): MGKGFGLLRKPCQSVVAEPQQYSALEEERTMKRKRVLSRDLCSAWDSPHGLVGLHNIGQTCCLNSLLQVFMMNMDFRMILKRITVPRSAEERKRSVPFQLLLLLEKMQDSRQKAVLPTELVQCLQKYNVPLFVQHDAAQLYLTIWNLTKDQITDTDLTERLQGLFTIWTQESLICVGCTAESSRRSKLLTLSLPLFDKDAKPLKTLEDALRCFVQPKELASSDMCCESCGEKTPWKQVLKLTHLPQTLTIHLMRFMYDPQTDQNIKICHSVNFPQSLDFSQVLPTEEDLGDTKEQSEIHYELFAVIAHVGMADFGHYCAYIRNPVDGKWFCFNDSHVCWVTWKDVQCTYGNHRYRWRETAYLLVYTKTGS

[2] = target: T2, murine USP18 catalytic core (residues 46-368), His6-tagged (mouse, UniProt Q9WTV6 46-368); experiment: SPR
T2 sequence (looked up): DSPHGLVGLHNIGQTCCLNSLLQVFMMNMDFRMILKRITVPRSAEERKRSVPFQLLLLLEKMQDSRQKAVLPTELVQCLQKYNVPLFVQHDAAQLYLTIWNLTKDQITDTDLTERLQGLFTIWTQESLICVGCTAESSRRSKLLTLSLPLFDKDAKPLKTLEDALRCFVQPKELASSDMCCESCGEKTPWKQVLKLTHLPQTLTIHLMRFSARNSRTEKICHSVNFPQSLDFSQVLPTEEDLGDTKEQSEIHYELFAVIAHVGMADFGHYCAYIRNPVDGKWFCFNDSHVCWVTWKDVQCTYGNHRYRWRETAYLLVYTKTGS

[3] = target: T3, human USP18 (residues 16-372), tag removed (human, UniProt Q9UMW8 16-372); experiment: covalent adduct formation with an active-site probe
T3 sequence (looked up): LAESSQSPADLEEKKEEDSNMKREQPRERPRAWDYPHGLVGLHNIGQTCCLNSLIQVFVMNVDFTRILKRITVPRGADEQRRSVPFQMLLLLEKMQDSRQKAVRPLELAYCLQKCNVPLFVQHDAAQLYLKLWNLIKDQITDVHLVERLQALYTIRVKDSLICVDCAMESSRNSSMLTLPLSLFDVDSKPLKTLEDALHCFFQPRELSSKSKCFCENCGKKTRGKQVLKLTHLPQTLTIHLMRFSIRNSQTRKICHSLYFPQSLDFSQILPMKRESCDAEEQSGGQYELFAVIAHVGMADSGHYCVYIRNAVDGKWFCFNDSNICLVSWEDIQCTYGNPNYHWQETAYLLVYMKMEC

B1: mouse ISG15 (residues 1-155, C76S) (natural protein, UniProt Q64339 1-155, looked up)
chain: MAWDLKVKMLGGNDFLVSVTNSMTVSELKKQIAQKIGVPAFQQRLAHQTAVLQDGLTLSSLGLGPSSTVMLVVQNSSEPLSILVRNERGHSNIYEVFLTQTVDTLKKKVSQREQVHEDQFWLSFEGRPMEDKELLGEYGLKPQCTVIKHLRLRGG
Q: Which “catalytic activity towards ISG15-FP, percent of wild type” value [1] does the source give for B1 here?
A: Its value is 65 % of wt activity.

Q: What about the Kd [2] of the same binder?
A: Its Kd is 1490 ± 30 nM.

B2: mouse ISG15-W121R (C76S) (natural protein, UniProt Q64339 1-155, looked up)
chain: B1 chain with W121R
Q: For B2, which “stoichiometry N” value [2] is on record?
A: Its value is 0.4 ISG15 per immobilized USP18.

B3: mouse ISG15-PA (full-length ISG15 propargylamide probe, residues 1-154, C76S) (natural protein, UniProt Q64339 1-154, looked up)
chain: MAWDLKVKMLGGNDFLVSVTNSMTVSELKKQIAQKIGVPAFQQRLAHQTAVLQDGLTLSSLGLGPSSTVMLVVQNSSEPLSILVRNERGHSNIYEVFLTQTVDTLKKKVSQREQVHEDQFWLSFEGRPMEDKELLGEYGLKPQCTVIKHLRLRG
modifications: C-terminal propargylamide (PA)
Q: Does B3 bind [3]?
A: Result: binds
